Assay results: patent US10428140B2, “Anti-EphA4 antibody” (EISAI R&D MANAGEMENT CO., LTD., priority 2015, dated 2019)

T1: human EphA1 (Homo sapiens, UniProt P21709)
T1 construct: a protein of the extracellular region of each human Eph receptor fused with the SEAP protein and the His tag; made in house; host or cells: Expi293F cells (culture supernatant)
T1 sequence (P21709 26-547 limits assumed): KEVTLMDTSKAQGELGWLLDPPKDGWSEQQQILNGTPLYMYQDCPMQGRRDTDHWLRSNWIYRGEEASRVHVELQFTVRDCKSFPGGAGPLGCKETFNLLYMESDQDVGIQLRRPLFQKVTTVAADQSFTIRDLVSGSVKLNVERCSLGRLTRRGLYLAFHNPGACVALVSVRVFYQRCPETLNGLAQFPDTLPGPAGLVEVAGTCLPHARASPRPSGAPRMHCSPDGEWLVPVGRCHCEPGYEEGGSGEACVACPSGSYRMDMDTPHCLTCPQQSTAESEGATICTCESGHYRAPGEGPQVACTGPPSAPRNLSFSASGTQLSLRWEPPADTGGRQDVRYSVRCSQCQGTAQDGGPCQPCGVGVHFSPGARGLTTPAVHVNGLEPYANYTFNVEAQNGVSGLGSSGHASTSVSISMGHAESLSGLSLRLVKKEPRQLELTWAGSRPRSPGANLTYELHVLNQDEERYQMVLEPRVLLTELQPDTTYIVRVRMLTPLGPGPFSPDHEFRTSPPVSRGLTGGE


Tests used:
[1] = target: T2, human EphA4 (Homo sapiens, UniProt P54764); experiment: Affinity of humanized antibodies by SPR (Biacore T200); type: binding; conditions: human EphA4 extracellular region-SEAP-His; for ka / kd: 1:1 binding model; for Kd: KD=kd/ka
T2 construct: made in house; not restated for the human SEAP-His protein
Protocol: The binding affinity of each anti-EphA4 monoclonal humanized antibody obtained in Example 16 for human EphA4 was determined by surface plasmon resonance (SPR) using Biacore T200 (GE Healthcare). First, for the assay of antibody A, a rat anti-mouse IgG1 antibody produced with a conventional method by immunizing rat with mouse IgG1 antibody was immobilized on sensor chip CM5. The immobilization of the rat anti-mouse IgG1 antibody on sensor chip CM5 was performed by the amine coupling method using N-hydroxysuccinimide (NHS) and N-ethyl-N′-(3-dimethylaminopropyl)carbodiimide hydrochloride (EDC). Ethanolamine was used in blocking (the sensor chip and the reagents for immobilization were all manufactured by GE Healthcare). The antibody was diluted with a buffer solution for immobilization (10 mM sodium acetate, pH 4.5) and immobilized on the sensor chip according to the protocol attached to Biacore T200. For the assay of each humanized monoclonal antibody, a protein A chip (GE Healthcare, 29-1383-03) was used. Antibody A or the humanized monoclonal antibody was diluted with a running buffer solution HBS-EP (GE Healthcare), injected onto only flow cell 2 for 120 seconds, and captured (captured amount: approximately 30 to 60 RU). Subsequently, human EphA4 extracellular region-SEAP-His protein serially diluted in the range of 50, 16.7, 5.6, 1.9, and 0.6 nM using HBS-EP was sequentially added from the lower toward higher concentration sides without regeneration operation. Binding reaction curves were sequentially observed at the time of the addition (association phase, for 120 sec) and after the completion of the addition (dissociation phase, for 900 sec). After the completion of each observation, the sensor chip was regenerated by the addition of 3 M MgCl2 (for 60 sec) or 10 mM Glycine-HCl pH 1.5 (for 30 sec). The obtained binding reaction curves were subjected to fitting analysis with 1:1 binding models using software BIA evaluation attached to the system to calculate the affinity (KD=kd/ka) for human EphA4 (Table 6).

[2] = target: T1, human EphA1; experiment: Selectivity ELISA of humanized antibodies for human Eph receptor; type: binding; conditions: coated protein 1 nM
Source text: According to the method described in Example 7, a DNA sequence encoding the signal sequence and the extracellular region of each human Eph receptor (EphA1, EphA2, EphA3, EphA4, EphA5, EphA6, EphA7, EphA8, EphA10, EphB1, EphB2, EphB3, EphB4, and EphB6) was amplified by RT-PCR using tissue-derived total RNA and cloned into a pENTR1A vector (Invitrogen/Life Technologies) having a DNA sequence encoding SEAP protein and histidine tag. Next, the DNA sequence encoding the signal sequence and the extracellular region of each human Eph receptor, SEAP protein, and histidine tag was transferred to a pcDNA3.1_rfcB vector through LR reaction using Gateway System (Invitrogen/Life Technologies) to construct a vector for the expression of a protein of the extracellular region of each human Eph receptor fused with the SEAP protein and the His tag (referred to as “Eph receptor extracellular region-SEAP-His protein”) (this vector is referred to as “Eph receptor extracellular region-SEAP-His protein expression vector”).
Next, each human Eph receptor extracellular region-SEAP-His protein expression vector was transferred to Expi293F cells (Gibco/Thermo Fisher Scientific) using Expi293 expression system (Gibco/Thermo Fisher Scientific). After incubation (5% CO2, 37° C.) for 5 days, the culture supernatant was recovered and centrifuged at 1500 rpm at room temperature for 5 minutes. The centrifugation supernatant was filtered through a 0.45-μm filter (Merck Millipore).
Each anti-EphA4 monoclonal humanized antibody obtained in Example 16 was evaluated for its binding activity against each human Eph receptor according to the following steps.
Each well of a 96-well plate (Nunc) was coated with a rabbit anti-6-His antibody (Bethyl Laboratories). Each well was […] After washing with 0.05% Tween 20/PBS (Nacalai Tesque) three times, the SEAP-His protein of human EphA1, EphA2, EphA3, EphA4, EphA5, EphA6, EphA7, EphA8, EphA10, EphB1, EphB2, EphB3, EphB4, or EphB6 was added (final concentration: 1 nM) to each well and incubated at room temperature for 1 hour. After washing three times, the humanized antibody was added to each well and incubated at room temperature for 1 hour. After washing three times, a horseradish peroxidase-labeled donkey […] IgG antibody (Jackson ImmunoResearch Laboratories) was added thereto and incubated at room temperature for 1 hour. After washing three times, TMB Microwell Peroxidase Substrate System (Kirkegaard & Perry Laboratories (KPL)) was added to each well. After confirmation of moderate color development, an equal amount of a reaction stopping solution (1N H2SO4, Wako Pure Chemical Industries) was added to each well. The absorbance at 450 nm was read using a microplate reader (Thermo Fisher Scientific).

T2 sequence (P54764 20-547): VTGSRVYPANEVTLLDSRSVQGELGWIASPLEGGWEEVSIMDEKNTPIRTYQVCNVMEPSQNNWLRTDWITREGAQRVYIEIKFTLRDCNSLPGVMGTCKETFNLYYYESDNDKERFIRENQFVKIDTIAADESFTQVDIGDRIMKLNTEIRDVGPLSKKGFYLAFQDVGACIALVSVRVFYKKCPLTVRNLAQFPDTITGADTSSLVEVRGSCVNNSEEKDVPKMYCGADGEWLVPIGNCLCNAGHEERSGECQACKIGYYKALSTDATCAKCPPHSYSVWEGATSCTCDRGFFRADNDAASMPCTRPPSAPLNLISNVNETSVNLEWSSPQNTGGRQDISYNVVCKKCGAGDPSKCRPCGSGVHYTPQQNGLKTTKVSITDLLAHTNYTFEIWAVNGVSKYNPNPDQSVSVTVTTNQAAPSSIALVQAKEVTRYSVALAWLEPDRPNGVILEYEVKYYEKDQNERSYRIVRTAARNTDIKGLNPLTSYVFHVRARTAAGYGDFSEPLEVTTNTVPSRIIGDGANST

Row | ka [1] [M⁻¹ s⁻¹] | kd [1] [s⁻¹] | Kd [1] [nM] | hEphA1-SEAP-: absorbance at 450 nm, percentage with respect to hEphA4-SEAP-His as 100% [2] [%] | Molecule
1 | 280000 | 0.00023 | 0.82 | 5.6 | 71 (antibody, V domains shown, synthetic humanized antibody heavy chain variable region sequence; synthetic humanized antibody light chain variable region sequence) VH: QIQLVQSGSELKKPGASVKVSCKASGYTFTDYSMHWVRQAPGQGLKWMGWINTETGEPTYAQGFTGRFVFSLDTSVSTAYLQISSLKAEDTAVYYCARIPLYYYGSRYWYFDVWGQGTTVTVSS VL: EIVMTQSPATLSVSPGERATLSCRASENIYRNLAWYQQKPGQSPRLLIYAATNLADGIPARFSGSGSGTEYTLTISSLQSEDFAVYYCQHFWGTPWTFGQGTKVEIK
2 | 290000 | 0.00027 | 0.93 | 6.0 | 73 (antibody, V domains shown, synthetic humanized antibody heavy chain variable region sequence; synthetic humanized antibody light chain variable region sequence) VH: QIQLVQSGSELKKPGASVKVSCKASGYTFTDYSMHWVRQAPGQGLKWMGWINTETGEPTYADDFKGRFVFSLDTSVSTAYLQISSLKAEDTAVYYCARIPLYYYGSRYWYFDVWGQGTTVTVSS VL: EIVMTQSPATLSVSPGERATLSCRASENIYRNLAWYQQKPGQSPRLLIYAATNLADGIPARFSGSGSGTEYTLTISSLQSEDFAVYYCQHFWGTPWTFGQGTKVEIK
3 | 300000 | 0.00031 | 1 | 4.5 | 95 (antibody, V domains shown, constant regions without entry; synthetic humanized antibody light chain variable region sequence; synthetic humanized antibody heavy chain variable region sequence) VL: EIVMTQSPATLSVSPGERATLSCRASENIYRNLAWYQQKPGQSPRLLIYAATNLADGIPARFSGSGSGTEYTLTISSLQSEDFAVYYCQHFWGTPWTFGQGTKVEIK VH: QVQLVQSGSELKKPGASVKVSCKASGYTFTDYSMHWVRQAPGQGLEWMGWINTETGEPTYADDFKGRFVFSLDTSVSTAYLQISSLKAEDTAVYYCARIPLYYYGSRYWYFDVWGQGTTVTVSS
4 | 370000 | 0.00053 | 1.4 | 5.7 | 139 (antibody, synthetic humanized antibody heavy chain variable region sequence; synthetic humanized antibody light chain variable region sequence; synthetic antibody constant region sequence) VH: QVQLVQSGSELKKPGASVKVSCKASGYTFTDYSMHWVRQAPGQGLEWMGWINTETGEPTYAQGFTGRFVFSLDTSVSTAYLQISSLKAEDTAVYYCARIPLYYYGSRYWYFDVWGQGTTVTVSS VL: DIQMTQSPSSLSASVGDRVTITCRASENIYRNLAWYQQKPGKAPKLLVYAATNLADGVPSRFSGSGSGTDYTLTISSLQPEDFATYYCQHFWGTPWTFGQGTKVEIK ASTKGPSVFPLAPSSRSTSESTAALGCLVKDYFPEPVTVSWNSGALTSGVHTFPAVLQSSGLYSLSSVVTVPSSNFGTQTYTCNVDHKPSNTKVDKTVERKSCVECPPCPAPPAAAPSVFLFPPKPKDTLMISRTPEVTCVVVDVSHEDPEVQFNWYVDGVEVHNAKTKPREEQFNSTFRVVSVLTVVHQDWLNGKEYKCKVSNKGLPAPIEKTISKTKGQPREPQVYTLPPSREEMTKNQVSLTCLVKGFYPSDIAVEWESNGQPENNYKTTPPMLDSDGSFFLYSKLTVDKSRWQQGNVFSCSVMHEALHNHYTQKSLSLSPG
5 | 270000 | 0.00031 | 1.1 | 5.6 | 96 (antibody, V domains shown, constant regions without entry; synthetic humanized antibody light chain variable region sequence; synthetic humanized antibody heavy chain variable region sequence) VL: EIVMTQSPATLSVSPGERATLSCRASENIYRNLAWYQQKPGQSPRLLIYAATNLADGIPARFSGSGSGTEYTLTISSLQSEDFAVYYCQHFWGTPWTFGQGTKVEIK VH: QVQLVQSGSELKKPGASVKVSCKASGYTFTDYSMHWVRQAPGQGLKWMGWINTETGEPTYADDFKGRFVFSLDTSVSTAYLQISSLKAEDTAVYYCARIPLYYYGSRYWYFDVWGQGTTVTVSS
6 | 320000 | 0.00043 | 1.4 | 5.5 | 140 (antibody, V domains shown, synthetic humanized antibody heavy chain variable region sequence; synthetic humanized antibody light chain variable region sequence) VH: QVQLVQSGSELKKPGASVKVSCKASGYTFTDYSMHWVRQAPGQGLKWMGWINTETGEPTYAQGFTGRFVFSLDTSVSTAYLQISSLKAEDTAVYYCARIPLYYYGSRYWYFDVWGQGTTVTVSS VL: DIQMTQSPSSLSASVGDRVTITCRASENIYRNLAWYQQKPGKAPKLLVYAATNLADGVPSRFSGSGSGTDYTLTISSLQPEDFATYYCQHFWGTPWTFGQGTKVEIK
